For this experiment, the target named is HCMV trimeric gH/gL recombinant protein (human cytomegalovirus, strain Merlin | T4 phage) (UniProt F5HCH8). As to the kind of experiment: native gel or EMSA. In general terms: A gel shift assay detects complexes by their altered migration in electrophoresis.

In general, stoichiometry N refers to the number of molecules, sites or subunits per partner or assembly. On to “HCMV trimeric gH/gL recombinant protein (from UniProt F5HCH8;Q6SW67)”, for which the stoichiometry N was determined as 3.

For the origin of these results see paper PMC6651862.
